± gives the uncertainty stated by the source.
Assay: self-splicing fitness, log relative to wild type (ln ratio); higher = more splicing; Tetrahymena group I intron in knt gene, E. coli kanamycin selection, DiMSum; sequences stand for … in CUCUCU…GGAGGGAAAAGUUAUCAGGCAUGCACCUGGUAGCUAGUCUUUAAACCAAUAGAUUGCAUCGGUUUAAAAGGCAAGACCGUCAAAUUGCGGGAAAGGGGUCAACAGCCGUUCAGUACCAAGUCUCAGGGGAAACUUUGAGAUGGCCUUGCAAAGGGUAUGGUAAUAAGCUGACGGACAUGGUCCUAACCACGCAGCCAAGUCCUAAGUCAACAGAUCUUCUGUUGAUAUGGAUGCAGUUCACAGACUAAAUGUCGGUCGGGGAAGAUGUAUUCUUCUCAUAAGAUAUAGUCGGACCUCUCCUUAAUGGGAGCUAGCGGAUGAAGUGAUGCAACACUGGAGCCGCUGGGAACUAAUUUGUAUGCGAAAGUAUAUUGAUUAGUUUUGGAGUACUCGUGGUCG
In short: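 Six replicate transformations of E. coli BL21(DE3) with a pET-22b(+) library were grown overnight at 37°C or 30°C. The library randomised all eight P1ex-region intron nucleotides, the intron lying in the knt kanamycin-resistance gene, and plates were LB agar with or without 25 μg/mL kanamycin plus 100 μg/mL carbenicillin, 50 μM IPTG and 0.2% rhamnose. Pooled colonies were amplicon-sequenced on an Illumina HiSeq 2500, and fitness is the DiMSum error-weighted combination of wild-type-normalised replicate fold changes, kanamycin versus none.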

Sequence | self-splicing fitness (ln) (30 °C) | self-splicing fitness (ln) (37 °C)
UGGCAGCAAUAUUACGUCUU | -0.0989 ± 0.044 | 0.494 ± 0.059
UGGCAGCAAUAUUACGUUAU | -2.25 ± 0.11 | -1.91 ± 0.16
UGGCAGCAAUAUUACGUUGG | -2.33 ± 0.11 | -0.227 ± 0.13
UGGGAGCAAUAUUACGAUGU | -3.95 ± 0.33 | -2.53 ± 0.3
UGGGAGCAAUAUUACGAUUG | – | -2.29 ± 0.4
UGGGAGCAAUAUUACGCACG | -3.26 ± 0.37 | –
UGGGAGCAAUAUUACGCCGA | -0.637 ± 0.4 | -0.137 ± 0.24
UGGGAGCAAUAUUACGCCUA | -2.63 ± 0.44 | -1.75 ± 0.32
UGGGAGCAAUAUUACGCGAG | -1.25 ± 0.19 | -2.26 ± 0.27
UGGGAGCAAUAUUACGCUUA | -2.55 ± 0.11 | -0.767 ± 0.098
UGGGAGCAAUAUUACGCUUG | -1.62 ± 0.23 | 0.249 ± 0.23
UGGGAGCAAUAUUACGGCAG | -3.28 ± 0.21 | -1.34 ± 0.17
UGGGAGCAAUAUUACGGCCU | -2.18 ± 0.16 | -1.9 ± 0.2
UGGGAGCAAUAUUACGGCGC | -1.12 ± 0.38 | –
UGGGAGCAAUAUUACGGGAA | -2.98 ± 0.3 | -1.87 ± 0.24
UGGGAGCAAUAUUACGGGUA | -2.68 ± 0.32 | -2.33 ± 0.37
UGGGAGCAAUAUUACGUAUG | -3.01 ± 0.14 | -1.84 ± 0.22
UGGGAGCAAUAUUACGUGCG | -1.56 ± 0.11 | -0.551 ± 0.14
UGGGAGCAAUAUUACGUUAA | -2.76 ± 0.33 | –
UGGGAGCAAUAUUACGUUCA | -0.406 ± 0.091 | -0.266 ± 0.12
UGGUAGCAAUAUUACGACAU | -1.39 ± 0.015 | -0.583 ± 0.034
UGGUAGCAAUAUUACGACUC | -0.656 ± 0.23 | -0.807 ± 0.35
UGGUAGCAAUAUUACGAGGU | -2.63 ± 0.45 | -2.6 ± 0.35
UGGUAGCAAUAUUACGAUCG | 0.32 ± 0.085 | 0.623 ± 0.11
UGGUAGCAAUAUUACGAUGA | -0.831 ± 0.13 | -0.597 ± 0.19
UGGUAGCAAUAUUACGAUUA | -0.395 ± 0.055 | 0.0463 ± 0.066
UGGUAGCAAUAUUACGCGGU | – | -2.58 ± 0.45

Sequence | self-splicing fitness (ln) (30 °C) | self-splicing fitness (ln) (37 °C)
UGGUAGCAAUAUUACGCUCG | 0.322 ± 0.17 | 0.532 ± 0.25
UGGUAGCAAUAUUACGCUUG | -0.988 ± 0.092 | -0.402 ± 0.11
UGGUAGCAAUAUUACGGCUA | -1.37 ± 0.2 | -0.75 ± 0.19
UGGUAGCAAUAUUACGGGAU | -3.14 ± 0.36 | -2.32 ± 0.28
UGGUAGCAAUAUUACGUAGC | -1.3 ± 0.2 | -0.833 ± 0.27
UGGUAGCAAUAUUACGUCUU | -0.526 ± 0.12 | 0.37 ± 0.13
UGGUAGCAAUAUUACGUGCC | -1.42 ± 0.21 | -2.45 ± 0.39
UGGUAGCAAUAUUACGUUAC | -2.42 ± 0.37 | –
UGGUAGCAAUAUUACGUUAG | -1.9 ± 0.067 | -0.599 ± 0.072
UGGUAGCAAUAUUACGUUUU | -3.96 ± 0.24 | -2.32 ± 0.16
UGUAAGCAAUAUUACGAAGC | -3.44 ± 0.28 | -2.61 ± 0.34
UGUAAGCAAUAUUACGACUG | -0.779 ± 0.11 | -1.14 ± 0.14
UGUAAGCAAUAUUACGAGAG | -3.81 ± 0.23 | -1.87 ± 0.25
UGUAAGCAAUAUUACGAGCC | -1.57 ± 0.35 | -0.838 ± 0.43
UGUAAGCAAUAUUACGCAAG | -2.85 ± 0.39 | -2.66 ± 0.44
UGUAAGCAAUAUUACGCCAU | -3.9 ± 0.27 | -3.35 ± 0.3
UGUAAGCAAUAUUACGGAAU | – | -2.49 ± 0.26
UGUAAGCAAUAUUACGGACG | -0.142 ± 0.11 | 0.762 ± 0.14
UGUAAGCAAUAUUACGUACC | -1.07 ± 0.34 | -0.216 ± 0.26
UGUAAGCAAUAUUACGUAGA | -0.696 ± 0.12 | -0.209 ± 0.16
UGUAAGCAAUAUUACGUUGA | -2.71 ± 0.18 | -1.28 ± 0.16
UGUAAGCAAUAUUACGUUGU | -3.79 ± 0.21 | -2.98 ± 0.29
UGUCAGCAAUAUUACGACUA | -0.425 ± 0.073 | 0.686 ± 0.11
UGUCAGCAAUAUUACGAGAC | – | -2.91 ± 0.29
UGUCAGCAAUAUUACGAUAU | -1.6 ± 0.13 | -0.448 ± 0.13
UGUCAGCAAUAUUACGAUCU | -0.397 ± 0.091 | 0.0205 ± 0.1
UGUCAGCAAUAUUACGCCCU | -0.458 ± 0.13 | -0.00845 ± 0.19

Sequence | self-splicing fitness (ln) (30 °C) | self-splicing fitness (ln) (37 °C)
UGUCAGCAAUAUUACGCCUA | -0.234 ± 0.12 | 0.77 ± 0.16
UGUCAGCAAUAUUACGCCUC | -2.62 ± 0.42 | –
UGUCAGCAAUAUUACGCGCC | -0.7 ± 0.18 | -0.523 ± 0.23
UGUCAGCAAUAUUACGCGGG | -3.8 ± 0.3 | -1.73 ± 0.26
UGUCAGCAAUAUUACGCUUC | – | -1.76 ± 0.21
UGUCAGCAAUAUUACGGAUA | -1.37 ± 0.1 | -0.339 ± 0.12
UGUCAGCAAUAUUACGGCCC | -1.78 ± 0.41 | -0.199 ± 0.4
UGUCAGCAAUAUUACGGCGA | -0.34 ± 0.093 | -0.0234 ± 0.1
UGUCAGCAAUAUUACGGCGC | -2.76 ± 0.21 | -1.65 ± 0.19
UGUCAGCAAUAUUACGGUGA | -0.413 ± 0.094 | -0.355 ± 0.12
UGUCAGCAAUAUUACGUACA | -0.576 ± 0.11 | -0.0735 ± 0.13
UGUCAGCAAUAUUACGUAUA | -0.245 ± 0.067 | 0.374 ± 0.087
UGUCAGCAAUAUUACGUCAA | -0.787 ± 0.077 | -0.0175 ± 0.076
UGUCAGCAAUAUUACGUGAU | -2.85 ± 0.13 | -1.81 ± 0.14
UGUCAGCAAUAUUACGUGUU | -3.51 ± 0.15 | -1.23 ± 0.11
UGUGAGCAAUAUUACGACAG | -1.7 ± 0.1 | -1.59 ± 0.12
UGUGAGCAAUAUUACGACAU | -3.682 ± 0.033 | -2.45 ± 0.042
UGUGAGCAAUAUUACGACGA | -0.898 ± 0.14 | 0.278 ± 0.14
UGUGAGCAAUAUUACGAGAG | -3.57 ± 0.23 | -2.44 ± 0.22
UGUGAGCAAUAUUACGAUUG | -2.19 ± 0.26 | -0.226 ± 0.26
UGUGAGCAAUAUUACGCAAU | -4.42 ± 0.42 | -2.73 ± 0.31
UGUGAGCAAUAUUACGCGAA | -4.12 ± 0.29 | -2.54 ± 0.18
UGUGAGCAAUAUUACGCUAU | – | -1.9 ± 0.3
UGUGAGCAAUAUUACGCUGG | -2.49 ± 0.28 | -2.71 ± 0.37
UGUGAGCAAUAUUACGGAGA | -3.34 ± 0.28 | -2.29 ± 0.31

Source: the supplement of paper PMC7877785
